Experiment [1] concerns the target T1, human CD79b protein on DoHH2 and WSU-DLCL2 cells (human, UniProt P40259 29-229).
T1 sequence (looked up): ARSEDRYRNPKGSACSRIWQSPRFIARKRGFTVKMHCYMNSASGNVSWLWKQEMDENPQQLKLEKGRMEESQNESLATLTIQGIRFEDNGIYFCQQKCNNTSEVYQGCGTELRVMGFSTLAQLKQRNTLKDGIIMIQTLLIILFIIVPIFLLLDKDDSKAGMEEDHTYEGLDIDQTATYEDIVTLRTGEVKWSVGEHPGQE
Briefly: cell-based or functional assay.

In the next experiment the target is T2, human CD79b protein (human, UniProt P40259 29-159, limits assumed).
T2 construct: Recombinant protein used in the Biacore assay
T2 sequence (looked up): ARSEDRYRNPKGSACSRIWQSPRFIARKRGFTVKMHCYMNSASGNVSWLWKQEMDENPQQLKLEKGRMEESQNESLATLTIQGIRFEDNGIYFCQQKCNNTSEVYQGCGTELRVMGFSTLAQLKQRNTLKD
Briefly: Biacore affinity assay, 1:1 Langmuir fit; column head prints EC50 (nM).

The results in this text go back to patent US20250108122A1 (SHANGHAI MABGEN BIOTECH, published 2025).

B1: ADC-8 (SN8-cys-MC-PAB-MMAE, with a DAR value of about 4) (antibody, human IgG1, kappa, V domains shown)
VH: EVQLVESGGGLVQPGGSLRLSCAASGYTFSSYWIEWVRQAPGKGLEWIGEILPGGGDTNYNEIFKGRATFSADTSKNTAYLQMNSLRAEDTAVYYCTRRVPIRLDYWGQGTLVTVSS
VL: DIQLTQSPSSLSASVGDRVTITCKASQSVDYEGDSFLNWYQQKPGKAPKLLIYAASNLESGVPSRFSGSGSGTDFTLTISSLQPEDFATYYCQQSNEDPLTFGQGTKVEIKR
modifications: MC-VC-PAB-MMAE coupled to cysteines after TCEP reduction; positions not given; mean n=3.59 per antibody (CE-SDS)
For the molecule B1, in experiment [1], the “IC50 of in vitro proliferation inhibition (MTT, 72 h), DoHH2 cells” value amounted to 0.0806 µg/mL and the “IC50 of in vitro proliferation inhibition (MTT, 72 h), WSU-DLCL2 cells” value worked out at 0.117 µg/mL.

B2: ADC-6 (hAb015-10-cys-D, with a DAR value of about 4) (antibody, human IgG1, kappa, V domains shown)
VH: EVQLVQSGAEVKKPGSSVKVSCKASGSSFSSYGINWVKQAPGQGLEWIGEIFPRSGNTYYNEKFEGRATLTADKSTSTAYMELRSLRSEDTAVYYCAKGDLGDFDYWGQGTTVTVSS
VL: DFVMTQTPLSLPVTPGEPASISCRSSQSIVHSDGNTYFEWYLQKPGQSPKLLIYKVSNRFSGVPDRFSGSGSGTDFTLKISRVEAEDVGVYYCFQGSHVPWTFGGGTKVEIKR
modifications: compound D (exatecan derivative linker-drug, Topo I inhibitor) coupled to cysteines after TCEP reduction; positions not given; mean n=3.46 per antibody (RP-HPLC)
In the case of B2, in experiment [1], the “IC50 of in vitro proliferation inhibition (MTT, 72 h), DoHH2 cells” value came to 0.0033 µg/mL and the “IC50 of in vitro proliferation inhibition (MTT, 72 h), WSU-DLCL2 cells” value worked out at 0.0542 µg/mL.

B3: ADC-5 (HAB015-10-cys-D, with a DAR value of about 2) (antibody, human IgG1, kappa, V domains shown)
VH: B2 VH
VL: B2 VL
modifications: compound D (exatecan derivative linker-drug, Topo I inhibitor) coupled to cysteines after TCEP reduction; positions not given; mean n=1.81 per antibody (RP-HPLC)
notes: Antibody-drug conjugate of hAb015-10 with compound D
On to B3, for which, in experiment [1], the “IC50 of in vitro proliferation inhibition (MTT, 72 h), DoHH2 cells” value is 0.0085 µg/mL and the “IC50 of in vitro proliferation inhibition (MTT, 72 h), WSU-DLCL2 cells” value came to 0.0683 µg/mL.

B4: ADC-7 (hAb015-10-cys-D, with a DAR value of about 6) (antibody, human IgG1, kappa, V domains shown)
VH: B2 VH
VL: B2 VL
modifications: compound D (exatecan derivative linker-drug, Topo I inhibitor) coupled to cysteines after TCEP reduction; positions not given; mean n=5.84 per antibody (RP-HPLC)
Consider B4, for which, in experiment [1], the “IC50 of in vitro proliferation inhibition (MTT, 72 h), DoHH2 cells” value stood at 0.002 µg/mL and the “IC50 of in vitro proliferation inhibition (MTT, 72 h), WSU-DLCL2 cells” value was 0.0534 µg/mL.

B5: hAb015-10 (antibody, human IgG1, kappa, V domains shown)
VH: B2 VH
VL: B2 VL
notes: Humanized form of the mouse hybridoma antibody mAb015; also called humanized anti-CD79b antibody hAb015-10; naked antibody
For the molecule B5, the “KD (binding affinity)” value with human CD79b protein was determined as 380 pM.

B6: ADC-3 (hAb015-10-cys-MC-vc-PAB-MMAE) (antibody, human IgG1, kappa, V domains shown)
VH: B2 VH
VL: B2 VL
modifications: MC-vc-PAB-MMAE coupled to cysteines after TCEP reduction; positions not given; mean n=3.09 per antibody (CE-SDS)
For the molecule B6, in experiment [1], the “IC50 of in vitro proliferation inhibition (MTT, 72 h), DoHH2 cells” value was determined as 0.0033 µg/mL and the “IC50 of in vitro proliferation inhibition (MTT, 72 h), WSU-DLCL2 cells” value worked out at 0.0059 µg/mL.
